Measured values from IntAct's records for PubMed 19494831.

B1: Polycomb protein Sfmbt (Drosophila melanogaster (Fruit fly)), Q9VK33 (parent)
chain: MNPSELRMMWMSSQYNSERITLEDAATLLGHPTVGLSVMEDLSAHQPTLDMNPMMSLMGGDFTGQAAATAAALGVQPGTLIATNSNNLYGFAHMGGLQQQLLQQSAAAAVFQNYAEAMDNDVENGMVGMAMEAVVDDDDQVYGQRDNNFDDNGSELEPKQEIINIDDFVMMNEDNNSYDGTDFMTSSDKDISQSSSSCMAQMPGSLGVPGVEHDLLVPLPDGLLHHKLLGTTLVPAMGTLNGNAFGNIMVSTENTSSKQMQRTYSTAKGANSTATTATCSASTSSALRSQRKTRKIEPVNRPGLVLKTPIAYRGNIDPSVIPIQKDGMAVCKRCGAIGVKHTFYTKSRRFCSMACARGELYSLVLNTKMEGDQATTSSPDPGAGSESADLPGDQQQSQSDIELDLHAAHIKNANYRFRITDQSKITQLNSFGEPMSMGGDAAANNVQMAADETIAALNGGAVGDATAPGSTEEGASTPNSYLSAAPTPKALRLFKDIYPQDDLPQIPKYERLPVPCPQMEKIISIRRRMYDPTHSYDWLPRLSKENFNAAPVTCFPHAPGCEVWDNLGVGMKVEVENTDCDSIEVIQPGQTPTSFWVATILEIKGYKALMSYEGFDTDSHDFWVNLCNAEVHSVGWCATRGKPLIPPRTIEHKYKDWKDFLVGRLSGARTLPSNFYNKINDSLQSRFRLGLNLECVDKDRISQVRLATVTKIVGKRLFLRYFDSDDGFWCHEDSPIIHPVGWATTVGHNLAAPQDYLERMLAGREAMIEVHEDDATIELFKMNFTFDEYYSDGKTNSFVEGMKLEAVDPLNLSSICPATVMAVLKFGYMMIRIDSYQPDASGSDWFCYHEKSPCIFPAGFCSVNNISVTPPNGYDSRTFTWEGYLRDTGAVAAGQHLFHRIIPDHGFEVGMSLECADLMDPRLVCVATVARVVGRLLKVHFDGWTDEYDQWLDCESADIYPVGWCVLVNHKLEGPPRVAHQQAPKPAPKPKIQRKRKPKKGAAGGKTPTDNNTQSVKSRTIALKTTPHLPKLSIKLELKPEHHNAAFYENNQPEEEGDEEDPDADGDGDGSTSHISEQSTTQSSSDLIAGSGSGSGSASLVTLATGSNKTNSSATNNKYIPRLADIDSSEPHLELVPDTWNVYDVSQFLRVNDCTAHCDTFSRNKIDGKRLLQLTKDDIMPLLGMKVGPALKISDLIAQLKCKVNPGRARSHKTNKSPFL

Variants of: B1
Details: with h4_human H4C16, P62805

effect of a mutation on the interaction	Variant
decreasing interaction	D697A

Variants of: B1
Details: with h33_human H3-3A

effect of a mutation on the interaction	Variant
increasing interaction	D697A

Variants of: B1
Details: with h33_human H3-3A
Remark: another data set of the same source

effect of a mutation on the interaction	Variant
decreasing interaction	D808A

Variants of: B1
Details: with h4_human H4C16, P62805
Remark: another data set of the same source

effect of a mutation on the interaction	Variant
decreasing interaction	D808A

Variants of: B1
Details: with h4_human H4C16, P62805
Remark: another data set of the same source

effect of a mutation on the interaction	Variant
decreasing interaction	Y948F
decreasing interaction	E947A

Variants of: B1
Details: with h4_human H4C16, P62805
Remark: another data set of the same source

effect of a mutation on the interaction	Variant
disrupting interaction	Y948F
disrupting interaction	E947A

Variants of: B1
Details: with h4_human H4C16, P62805
Remark: another data set of the same source

effect of a mutation on the interaction	Variant
disrupting interaction	D917A

Variants of: B1
Details: with h33_human H3-3A
Remark: another data set of the same source

effect of a mutation on the interaction	Variant
disrupting interaction	D917A
